Experimental data: patent US20250250314

Test system: UCM12
Sequence (chain, as listed by the source, chain 1 of 3, other chains not shown): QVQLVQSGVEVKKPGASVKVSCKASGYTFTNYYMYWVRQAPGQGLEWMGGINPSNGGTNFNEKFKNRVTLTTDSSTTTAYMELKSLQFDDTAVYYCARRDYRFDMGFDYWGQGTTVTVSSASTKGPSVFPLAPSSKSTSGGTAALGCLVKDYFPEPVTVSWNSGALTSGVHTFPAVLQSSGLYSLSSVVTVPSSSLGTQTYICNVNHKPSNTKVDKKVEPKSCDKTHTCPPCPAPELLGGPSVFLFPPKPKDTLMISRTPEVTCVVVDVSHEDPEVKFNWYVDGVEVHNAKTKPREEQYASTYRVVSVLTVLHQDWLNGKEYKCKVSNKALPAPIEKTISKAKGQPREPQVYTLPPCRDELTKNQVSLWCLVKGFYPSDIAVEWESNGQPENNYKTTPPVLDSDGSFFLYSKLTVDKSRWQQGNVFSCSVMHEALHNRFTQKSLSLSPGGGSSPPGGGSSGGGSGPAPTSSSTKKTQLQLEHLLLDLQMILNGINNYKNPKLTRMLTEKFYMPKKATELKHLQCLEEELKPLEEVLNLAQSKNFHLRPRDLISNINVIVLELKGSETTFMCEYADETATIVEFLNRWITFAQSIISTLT
Sequence (chain, as listed by the source, chain 2 of 3, other chains not shown): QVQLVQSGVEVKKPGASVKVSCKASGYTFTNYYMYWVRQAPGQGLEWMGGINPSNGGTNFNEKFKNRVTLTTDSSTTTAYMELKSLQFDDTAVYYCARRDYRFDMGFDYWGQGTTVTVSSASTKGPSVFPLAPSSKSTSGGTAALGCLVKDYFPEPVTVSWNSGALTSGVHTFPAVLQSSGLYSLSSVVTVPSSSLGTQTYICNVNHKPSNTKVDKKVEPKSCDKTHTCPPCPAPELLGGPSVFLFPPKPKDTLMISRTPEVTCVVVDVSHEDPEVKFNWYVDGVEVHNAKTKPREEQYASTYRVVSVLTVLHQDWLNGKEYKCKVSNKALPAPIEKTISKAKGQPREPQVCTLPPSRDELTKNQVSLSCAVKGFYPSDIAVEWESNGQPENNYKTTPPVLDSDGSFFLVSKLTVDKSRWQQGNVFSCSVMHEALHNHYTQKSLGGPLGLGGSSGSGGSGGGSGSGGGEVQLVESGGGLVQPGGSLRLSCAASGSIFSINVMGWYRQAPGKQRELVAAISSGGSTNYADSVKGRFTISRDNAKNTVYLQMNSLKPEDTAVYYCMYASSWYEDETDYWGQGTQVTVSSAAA

Sequence of MMP9 (chain, as listed by the source): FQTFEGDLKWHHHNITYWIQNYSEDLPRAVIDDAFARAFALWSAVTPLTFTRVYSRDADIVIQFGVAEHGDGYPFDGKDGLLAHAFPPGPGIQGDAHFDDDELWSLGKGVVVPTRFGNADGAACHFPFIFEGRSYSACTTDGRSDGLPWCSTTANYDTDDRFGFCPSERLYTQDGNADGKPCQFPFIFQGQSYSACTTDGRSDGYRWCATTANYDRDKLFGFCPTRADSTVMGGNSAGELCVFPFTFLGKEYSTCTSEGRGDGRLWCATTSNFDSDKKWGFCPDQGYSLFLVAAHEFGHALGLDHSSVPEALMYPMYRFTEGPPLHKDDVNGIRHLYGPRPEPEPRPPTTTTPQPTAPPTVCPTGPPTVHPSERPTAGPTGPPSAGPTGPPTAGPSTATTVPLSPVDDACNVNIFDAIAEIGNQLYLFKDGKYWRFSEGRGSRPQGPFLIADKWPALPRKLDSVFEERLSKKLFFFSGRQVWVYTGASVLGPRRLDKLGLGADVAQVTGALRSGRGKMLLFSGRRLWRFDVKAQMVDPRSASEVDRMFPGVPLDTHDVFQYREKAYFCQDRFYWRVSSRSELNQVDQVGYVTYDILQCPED
Sequence of MMP8 (chain, as listed by the source): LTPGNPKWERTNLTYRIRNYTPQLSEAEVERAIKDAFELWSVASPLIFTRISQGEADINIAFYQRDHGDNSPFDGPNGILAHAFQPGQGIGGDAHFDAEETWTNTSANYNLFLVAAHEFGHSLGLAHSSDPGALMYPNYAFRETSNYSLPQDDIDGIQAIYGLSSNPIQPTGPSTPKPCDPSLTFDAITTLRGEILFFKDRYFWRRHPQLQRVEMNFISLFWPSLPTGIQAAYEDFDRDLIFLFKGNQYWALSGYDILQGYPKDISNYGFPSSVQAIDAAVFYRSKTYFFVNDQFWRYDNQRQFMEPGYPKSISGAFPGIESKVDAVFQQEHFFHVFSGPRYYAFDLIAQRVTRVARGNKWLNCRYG
Sequence of Cathepsin L (chain, as listed by the source): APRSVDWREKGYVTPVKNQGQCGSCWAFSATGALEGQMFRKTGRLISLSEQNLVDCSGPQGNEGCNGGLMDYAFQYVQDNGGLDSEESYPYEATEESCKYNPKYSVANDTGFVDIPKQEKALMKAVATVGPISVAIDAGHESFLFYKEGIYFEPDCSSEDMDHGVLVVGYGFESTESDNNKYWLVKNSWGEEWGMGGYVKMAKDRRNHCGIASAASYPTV

Substance	kcat/Km
MMP8	810 M⁻¹ s⁻¹
MMP9	7900 M⁻¹ s⁻¹
Cathepsin L	14000 M⁻¹ s⁻¹
